Reference: patent US20080019962A1 (DYAX CORP A MASSACHUSETTS, published 2008)
Where a chain is given by its changes, count along the chain named.

T1: MTSP-1 (UniProt Q9Y5Y6 615-855, limits assumed)
T1 sequence (looked up): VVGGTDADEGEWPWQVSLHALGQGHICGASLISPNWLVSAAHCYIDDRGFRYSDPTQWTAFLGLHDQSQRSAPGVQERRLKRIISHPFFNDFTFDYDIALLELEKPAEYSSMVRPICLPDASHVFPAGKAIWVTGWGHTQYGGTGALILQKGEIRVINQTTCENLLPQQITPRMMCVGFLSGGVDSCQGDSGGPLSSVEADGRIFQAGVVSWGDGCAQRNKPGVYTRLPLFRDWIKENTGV

T2: Trypsinogen-IV (UniProt P35030 81-304)
T2 sequence (looked up): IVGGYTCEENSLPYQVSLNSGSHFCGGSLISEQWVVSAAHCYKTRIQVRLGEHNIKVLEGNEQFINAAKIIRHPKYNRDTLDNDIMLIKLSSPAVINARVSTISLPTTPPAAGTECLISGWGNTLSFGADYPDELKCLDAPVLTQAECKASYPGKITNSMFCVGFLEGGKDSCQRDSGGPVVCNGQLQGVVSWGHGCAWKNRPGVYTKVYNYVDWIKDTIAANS

B1: D5 IgG1 antibody (Fab D5 reformatted) (antibody, V domains shown)
VH: EVQLLESGGGLVQPGGSLRLSCAASGFTFSRYDMHWVRQAPGKGLEWVSSISSSGGYTAYADSVKGRFTISRDNSKNTLYLQMNSLRAEDTAVYYCARGARGTSQGYWGQGTLVTVSS
VL: DIQMTQSPGTLSLSPGERGTLSCRASQFVSYSYLAWYQQKPGQAPRLLIYGASSRAKGIPDRFSGSGSGTDFTLTITRLEPEDFAVYYCQQYVPSVPWTFGQGTKVEVKR
B2: D2 IgG1 antibody (Fab D2 reformatted) (antibody, V domains shown)
VH: EVQLLESGGGLVQPGGSLRLSCAASGFTFSRYRMYWVRQAPGKGLEWVSSISPSGGDTRYADSVKGRFTISRDNSKNTLYLQMNSLRAEDTAVYYCARGGPRGNKYYFDYWGQGTLVTVSS
VL: DIQMTQSPSSLSASVGDRVTITCRASQTIDNYLNWYQQKPGKAPKLVVYAASTLQTRVPSRFSGSGSGTDFTLTIDSLKPEDFATYFCQQGFSNPWTFGQGTTVAMIR
B3: A2 IgG1 antibody (Fab A2 reformatted) (antibody, V domains shown)
VH: B2 VH
VL: DIQMTQSPSFLSAFVGDRVTITCRASQDIRSDLAWYQQTPGKAPKLLIYAASTLKDGAPSRFSGSGSGTEFTLTISSLHPEDLATYYCQHLNGHPAFGPGTKVNIQR
B4: C9 IgG1 antibody (Fab C9 reformatted) (antibody, V domains shown)
VH: B2 VH with R33P, Y35F, S50Y, P53S, D57F, R59G
VL: QSVLTQPASVSGSPGQSITISCTGTSSDVGHYNYVSWYQQHPGKAPKVMIYDVSSRPSGVSDRFSGSKSGNTASLAISGLQAEDEADYYCSSYTSGDTLYVFGTGTKVTVLG
B5: H10 IgG1 antibody (Fab H10 reformatted) (antibody, V domains shown)
VH: B2 VH
VL: not shown
B6: F8 IgG1 antibody (Fab F8 reformatted) (antibody, V domains shown)
VH: B2 VH with R33H, Y35W, S50G, P53S, G55R, D57I, R59K
VL: DIQMTQSPGTLSLSPGERVTLSCRASQSVTSSDLAWYQQKPGQAPRLLISGASSRATGIPDRFSGSGSGTDFTLTISRLEPEDFAVYYCQQYGNSPGTFGQGTKVEIKR
B7: B5 IgG1 antibody (Fab B5 reformatted) (antibody, V domains shown)
VH: B2 VH
VL: SYELTQPPSVSVSLGQAANISCSGDRLGDKYTSWYQQQSGQSPVLVIYQDKKRPSGIPERFSGSSSGNTATLTISGAQAIDEAAYYCQAWATNVVFGAGTKLTVLG

target: MTSP-7; assay: cell-based or functional assay

Activity against protease in selectivity screen (enzyme assay), < 5%:
B1
B2
B3
B4
B5
B6
B7

target: MTSP-10; assay: cell-based or functional assay

Activity against protease in selectivity screen (enzyme assay), < 5%:
B1
B2
B3
B4
B5
B6
B7

target: T1, MTSP-1; assay: cell-based or functional assay

Activity against protease in selectivity screen (enzyme assay), < 5%:
B1
B2
B3
B4
B7

target: T2, Trypsinogen-IV; assay: cell-based or functional assay

Activity against protease in selectivity screen (enzyme assay), < 5%:
B1
B2
B3
B4
B5
B6
B7

target: MTSP-6; assay: cell-based or functional assay

Activity against protease in selectivity screen (enzyme assay), < 5%:
B1
B2
B3
B4
B5
B6
B7

target: Endotheliase-1 (ET1); assay: cell-based or functional assay

Activity against protease in selectivity screen (enzyme assay), < 5%:
B1
B2
B3
B4
B5
B6
B7
